This is an account of results in patent US20150231240A1, “ANTI-C16ORF54 ANTIBODIES AND METHODS OF USE THEREOF” (priority 2012, published 2015).

Experiment [1] concerns the target T1, human C16orf54 (human, UniProt Q6UWD8 1-224).
T1 construct: also called huC16orf54; hC16orf54
T1 sequence: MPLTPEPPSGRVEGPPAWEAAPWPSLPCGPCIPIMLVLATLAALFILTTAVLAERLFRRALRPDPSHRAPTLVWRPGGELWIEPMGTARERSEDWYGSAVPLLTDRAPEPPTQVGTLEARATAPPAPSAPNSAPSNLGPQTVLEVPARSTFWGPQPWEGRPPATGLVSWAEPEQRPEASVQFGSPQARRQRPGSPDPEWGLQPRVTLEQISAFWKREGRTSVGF
Kind of experiment: flow cytometry, 10 ug/ml antibody, D42M1-huC16orf54 cells. In a few lines: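 Sarcoma cells transfected with human or cyno C16orf54 were Fc-blocked, stained with antibody for 1 h at 4° C., then PE anti-mouse IgG Fcγ secondary 30 min at 4° C., with TO-PRO-3 viability dye. Value is live-cell PE median fluorescence divided by that of IgG isotype control.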

The target of experiment [2] is T1, human C16orf54. Description: flow cytometry, WSU-FSCCL lymphoma cells (endogenous C16orf54), 3 repeats.
Experiment [3] addresses T1, human C16orf54. Description: flow cytometry, NCI-H716 colon cancer cells (endogenous C16orf54), 2 repeats.
Experiment [4] concerns the target T1, human C16orf54. Kind of experiment: flow cytometry, SW1990 pancreatic cancer cells (endogenous C16orf54), 3 repeats. For orientation: In flow cytometry, cells or beads pass a laser one at a time.
The target of experiment [5] is T1, human C16orf54. Description: flow cytometry, CFPAC-1 pancreatic cancer cells (endogenous C16orf54), 3 repeats.
The target in experiment [6] is T2, N-terminal 32 amino acids of huC16orf54 (Homo sapiens, UniProt Q6UWD8).
T2 sequence (Q6UWD8 1-32 limits assumed): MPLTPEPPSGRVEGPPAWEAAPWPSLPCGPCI
Description: Affinity measurements of purified antibodies on OctetQK384. The settings on record: purified antibody, streptavidin sensors coated with N-terminal 32 amino acids of huC16orf54 coupled to biotin. The format is binding. The protocol: Affinity measurements of purified anti-huC16orf54 antibodies were carried out on the OctetQK384® sytem (ForteBio). After coating streptavidin sensors with the N-terminal 32 amino acids of huC16orf54 coupled to biotin at the C-terminus, association and dissociation of purified anti-huC16orf54 antibodies was monitored. KD values were derived using ForteBio's software.

Experiment [7] addresses T3, extracellular domain of c16orf54 (amino acids 1-31) fused to human IgG1 Fc (Homo sapiens, UniProt Q6UWD8).
T3 construct: the extracellular domain of c16orf54 (amino acids 1-31) either N terminal or C-terminal to a human IgG1 Fc domain; made in house; host or cells: 293 T cells, transient; Protein A purification
T3 sequence (Q6UWD8 1-31 limits assumed): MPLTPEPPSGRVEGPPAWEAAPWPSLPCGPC
Description: C16orf54 peptide-Fc fusion protein ELISA. The format is binding. The settings on record: serial dilution of antibody; HRP-conjugated anti mouse secondary. The protocol:
Anti-C16orf54 antibodies which bind to human C16orf54, including antibodies that are crossreactive with cyno C16orf54, were tested for their binding to various peptides derived from C16orf54 that were fused to human IgG (e.g., IgG1) constant regions to generate various peptide-Fc fusion proteins in an Fc-based ELISA. An exemplary Fc sequence comprises an IgG1 Hinge region sequence and IgG1 CH3 and […] domain sequences.
The fusion proteins were transiently expressed in 293 T cells. Protein was purified from the 293 expression supernatants by Protein A-based affinity purification. Exemplary C16 peptide-Fc fusion constructs that were made and purified are shown with their protein yield in Table 38. ELISA assays were performed by coating 384 well plates with the fusion proteins overnight at 4C. Antibodies were analyzed by serial dilution with concentrations ranging from 40 ug/mL to […]. Binding was detected with an HRP-conjugated anti mouse secondary antibody.
Background: In an ELISA, binding on a coated surface is turned into a signal by an enzyme label.

For experiment [8], the system named is KG-1 (acute myeloid leukemia) xenograft. It is filed as in vivo, NOD-SCID mice. The settings on record: for tumor growth inhibition (in words) / tumor growth inhibition: KG-1 xenograft; for tumor growth inhibition (in words): compared to control IgG, antibodies weekly; for tumor growth inhibition: treatment initiated at 92 mm^3, HB121 IgG isotype negative control; for TGI (tumor growth inhibition) / Mean (tumor volume): Table 42, KG-1 AML model, NOD-SCID mice, weekly administration; for Mean (tumor volume): in mm³ (unit assumed). The protocol: Subcutaneous tumors are generated by injection of 1×10^7 cancer cells in a mixture of PBS (without magnesium or calcium) and BD Matrigel™ (BD Biosciences) at a 1:1 ratio in the right flank of female SCID or nu^−/− mice. The injected total volume per mouse is […] with 50% being Matrigel (BD Biosciences). Mice are randomized once tumors reach a size between 65-200 mm^3. Antibodies are administered weekly, and body weights and tumors are measured once and twice weekly, respectively. Tumor volume is calculated as described (van der Horst et al. (2009) Neoplasia 11: 355-364). As a negative control, mice are injected with either purified mouse IgG or PBS; or a purified monoclonal antibody that recognizes an antigen other than C16orf54.
Anti-C16orf54 antibodies were tested for their anti-tumor activity in an animal-tumor model. For these studies, the cell line KG-1 (acute myeloid leukemia) was obtained from ATCC and cultured according to the suppliers' protocols. Animals were obtained from Taconic (Hudson, N.Y.). Studies were conducted with anti-C16orf54 antibodies and antibody-drug conjugates (ADCs) of these antibodies.
In these experiments, 4-6 week-old immunodeficient NOD-SCID female mice were used for the KG-1 tumor model. Mice were subcutaneously injected on the right flank with 6×10^6 viable cells (KG-1) in a mixture of PBS (without magnesium or calcium) and BD Matrigel™ (BD Biosciences). Once the tumor reached a size between 65-200 mm^3 mice were randomized. Anti-C16orf54 antibodies were administered weekly, and bodyweights and tumors were measured once and twice weekly, respectively. Tumor volume was calculated as described (van der Horst et al., supra). Experiments were performed on groups of at least eight animals per experimental point.
Statistical significance between treatment and control groups was calculated using the Graphpad Prism® software package and applying Student's two-tailed t-test. A p-value of less than 0.05 was considered significant.

B1: R29-7-1C (antibody, V domains shown)
VH: DVQLQESGPGLVKPSQSLSLTCTVTGYSITSDYAWNWIRQFPGNKLEWMGYISYSGSIRYNPSLKSRISITRDTSKNQFFLQLNSVTTEDTATYYCAREKYDNYYYAMDYWGQGTSVTVSS
VL: DIVMSQSPSSLAVSVGEKVTLSCKSSQNLLYSTNQKNYLAWYQQKPGQSPKLLIYWASTRESGVPDRFTGSGSGTDFTLTISSVKAEDLAVYYCQQYYSYRTFGGGTKLEIK
notes: Murine monoclonal IgG2a from a hybridoma
B1: in the experiment with human C16orf54 [1], the “Median fold change relative to IgG control” value turned out to be 205 fold. Further, the “Average MFI fold change relative to isotype control” value in the experiment with human C16orf54 [2] came to 13.7 fold; with human C16orf54 [3] it was 3.4 fold; with human C16orf54 [4], 1.9 fold; with human C16orf54 [5], 1.6 fold.

B2: R29-7-1C: murine anti-C16orf54 monoclonal antibody, IgG2a; VH SEQ ID NO: 8, VL SEQ ID NO: 10 (antibody, V domains shown)
VH: MRVLILLWLFTAFPGILSDVQLQESGPGLVKPSQSLSLTCTVTGYSITSDYAWNWIRQFPGNKLEWMGYISYSGSIRYNPSLKSRISITRDTSKNQFFLQLNSVTTEDTATYYCAREKYDNYYYAMDYWGQGTSVTVSS
VL: MDSQAQVLMLLLLWVSGTCGDIVMSQSPSSLAVSVGEKVTLSCKSSQNLLYSTNQKNYLAWYQQKPGQSPKLLIYWASTRESGVPDRFTGSGSGTDFTLTISSVKAEDLAVYYCQQYYSYRTFGGGTKLEIK
modifications: R29-7-1C heavy chain variable region; R29-7-1C light chain variable region
On to B2, for which, in experiment [6], the kdis worked out at 7.95e-05 ± 8.9e-06 s⁻¹ and the kon (in general, the second-order rate constant of association) is 68100 ± 6200 M⁻¹ s⁻¹. Moreover, the “binding to peptide-Fc fusion proteins (Fc-based ELISA)” value in experiment [7] is “able to bind to the peptide-Fc fusion proteins”. Further, in experiment [8], the “tumor growth inhibition (in words)” value is “inhibitors of tumor growth”, the tumor growth inhibition was found to be 69%, the “TGI (tumor growth inhibition)” value is −8% and the “Mean (tumor volume)” value was found to be 2813.4.

B3: R29-67-7A: murine anti-C16orf54 monoclonal antibody, IgG2a; VH SEQ ID NO: 12, VL SEQ ID NO: 14 (antibody, V domains shown)
VH: MRVLILLWLFTAFPGILSDVQLQESGPGLVKPSQSLSLTCTVTGYSITSDYAWNWIRQFPGNKLEWMGYINYSGRTRYNPSLNSRISLTRDTSTNQFFLQLNSVTTEDTATYYCARENYDYEFYAMDYWGQGTSVTVSS
VL: MESQAQVLMLLLLWVSGTCGDIVMSQSPSSLAVSVGEKVTMSCKSSQNLLYSSNQKNYLAWYQQKPGQSPKLLIYWASTRESGVPDRFTGSGSGTDFTLTISSVKAEDLAVYYCQQYYIYRTFGGGTKLEIK
modifications: R29-67-7A heavy chain variable region; R29-67-7A light chain variable region
On to B3, for which the “binding to peptide-Fc fusion proteins (Fc-based ELISA)” value in experiment [7] is recorded as “able to bind to the peptide-Fc fusion proteins”. Also, in experiment [8], the “tumor growth inhibition (in words)” value is listed as “inhibitors of tumor growth”, the tumor growth inhibition came out at 70%, the “TGI (tumor growth inhibition)” value is 6% and the “Mean (tumor volume)” value turned out to be 3221.4.
